Experimental data taken from patent publication US20210063414A1, “METHODS FOR PREVENTING AND/OR TREATING BONE LOSS CONDITIONS BY MODULATING IRISIN” (Dana-Farber Cancer Institute, Inc., priority 2018, published 2021).

Columns and labels:
Experiment in all cases: Crosslinking/co-immunoprecipitation/mass spectrometry (TMT quantitative proteomics) to identify irisin receptors
Assay type in all cases: binding
[1] = biological target: T1, MLO-Y4 cell surface proteins (Mus musculus, UniProt P04117); conditions: co-precipitated protein Fabp4 (FABP4_MOUSE)
T1 construct: endogenous in cells; host or cells: MLO-Y4
T1 sequence (P04117 1-132): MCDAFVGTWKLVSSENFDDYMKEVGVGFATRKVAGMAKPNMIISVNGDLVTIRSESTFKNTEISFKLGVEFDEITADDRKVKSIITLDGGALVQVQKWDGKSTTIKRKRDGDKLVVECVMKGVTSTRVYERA
Protocol: (§1) MLO-Y4 cells were seeded on 30×150 mm type-I collagen coated dishes as described in cell culture experiment. At 60% cell density, medium was switched to FreeStyle™ 293 Expression medium. After 4 hours incubation, the cells were chilled on ice for 10 minutes, followed by treatment of 10 nM his-tag irisin or his-tag adipsin for 20 minutes. The cells were then incubated with 1.5 mM DTSSP for 30 minutes on ice to do cross-linking, after washing with 15 ml cold PBS twice. The cross-linking was quenched by addition of a final concentration of 20 mM Tris-pH 7.5. The cells were then harvested and homogenized in 1 ml RIPA buffer containing proteaseinhibitor cocktailand phosphatase-inhibitor cocktail. Whole-cell lysates were homogenized by 10 times passages through a 22G needle fitted to a 3 ml syringe. Homogenized samples were rotated gently in cold room for 20 minutes followed by 15,000×g centrifugation for 10 minutes. After addition of a final concentration of 10 mM imidazole, supernatants were incubated with 100 μl Ni-NTA agarose for 1 hour. After centrifugation at 500×g for 1 minute, the supernatants were aspirated and 1 ml cold RIPA buffer containing 10 mM imidazole were added to the agarose. After 10 minutes rotation in cold room, the supernatants were aspirated and 1 ml cold RIPA buffer containing 30 mM imidazole were added to the agarose. After repeating the washing 3 times, 0.8 ml RIPA buffer containing 250 mM imidazole was added and the agarose was gently rotated in a cold room for 20 minutes. After centrifugation at 1000×g for 2 minutes, the supernatants were transferred to 1.5 ml tube and incubated with 100 μl 0.2% sodium deoxycholate and 100 μl 10% trichloroacetic acid in ice for 1 hour. After centrifugation at 12,000×g for 10 minutes at 4° C., the supernatants were removed and 1 ml cold acetone was added to the pellets followed by vortexing for 10 seconds. After one more washing with cold acetone, the pellets were dried at 37° C., and 39 μl PBS and 13 μl 4×NuPAGE LDS were added to the pellets with a final concentration of 5 mM DTT. Solubilized proteins were incubated at 65° C. for 20 minutes followed by incubation with a final concentration of 14 mM iodoacetamide for 45 minutes in the dark. 38 μl samples were loaded to 4-12% gradient SDS-PAGE for separation followed by Coomassie Blue staining. The gels were submitted to quantitative proteomics.
(§2) For in-gel digestions, gels were stained with Coomassie Blue and were excised into 8 equal segments for control and irisin lanes. Gel pieces were destained and dehydrated with 100% acetonitrile, vacuumed dried, and digested in 25 mM HEPES (pH 8.5) with 500 ng sequencing grade trypsin (Promega) and incubated for an overnight at 37° C. (Shevchenko et al. (1996) Anal. Chem. 68:850-858). Digests were treated with 1% formic acid and purified using C18 Stage-Tips as previously described (Rappsilber et al. (2007) Nat. Protoc. 2:1896-1906). Peptides were eluted with 70% acetonitrile and 1% formic acid, then dried using a speedvac. Isobaric labeling of digested peptides was accomplished using 6-plex tandem mass tag (TMT) reagents (Thermo Fisher Scientific, Rockford, Ill.). Reagents, 5.0 mg, were dissolved in 252 μl acetonitrile (ACN) and 5 μl of the solution was added to the digested peptides dissolved in 25 μl of 200 mM HEPES, pH 8.5. After 1 hour at room temperature, the reaction was quenched by adding 1 μl of 5% hydroxylamine. Labeled peptides were combined and acidified prior to C18 Stage-Tips desalting.
(§3) All LC-MS/MS experiments were performed on an Orbitrap Fusion™ Lumos mass spectrometer (Thermo Fisher Scientific, San Jose, Calif., USA) coupled with a Proxeon EASY-nLC™ 1200 LC pump (Thermo Fisher Scientific). Peptides were separated on a 100 μm inner diameter microcapillary column packed with 35 cm of Accucore™ C18 resin (1.8 μm, 100 Å, Thermo Fisher Scientific). […]

[2] = biological target: T2, MLO-Y4 cell surface proteins (Mus musculus, UniProt Q66L42); conditions: co-precipitated protein Map3k10 (M3K10_MOUSE)
T2 construct: endogenous in cells; host or cells: MLO-Y4
T2 sequence (Q66L42 whole entry): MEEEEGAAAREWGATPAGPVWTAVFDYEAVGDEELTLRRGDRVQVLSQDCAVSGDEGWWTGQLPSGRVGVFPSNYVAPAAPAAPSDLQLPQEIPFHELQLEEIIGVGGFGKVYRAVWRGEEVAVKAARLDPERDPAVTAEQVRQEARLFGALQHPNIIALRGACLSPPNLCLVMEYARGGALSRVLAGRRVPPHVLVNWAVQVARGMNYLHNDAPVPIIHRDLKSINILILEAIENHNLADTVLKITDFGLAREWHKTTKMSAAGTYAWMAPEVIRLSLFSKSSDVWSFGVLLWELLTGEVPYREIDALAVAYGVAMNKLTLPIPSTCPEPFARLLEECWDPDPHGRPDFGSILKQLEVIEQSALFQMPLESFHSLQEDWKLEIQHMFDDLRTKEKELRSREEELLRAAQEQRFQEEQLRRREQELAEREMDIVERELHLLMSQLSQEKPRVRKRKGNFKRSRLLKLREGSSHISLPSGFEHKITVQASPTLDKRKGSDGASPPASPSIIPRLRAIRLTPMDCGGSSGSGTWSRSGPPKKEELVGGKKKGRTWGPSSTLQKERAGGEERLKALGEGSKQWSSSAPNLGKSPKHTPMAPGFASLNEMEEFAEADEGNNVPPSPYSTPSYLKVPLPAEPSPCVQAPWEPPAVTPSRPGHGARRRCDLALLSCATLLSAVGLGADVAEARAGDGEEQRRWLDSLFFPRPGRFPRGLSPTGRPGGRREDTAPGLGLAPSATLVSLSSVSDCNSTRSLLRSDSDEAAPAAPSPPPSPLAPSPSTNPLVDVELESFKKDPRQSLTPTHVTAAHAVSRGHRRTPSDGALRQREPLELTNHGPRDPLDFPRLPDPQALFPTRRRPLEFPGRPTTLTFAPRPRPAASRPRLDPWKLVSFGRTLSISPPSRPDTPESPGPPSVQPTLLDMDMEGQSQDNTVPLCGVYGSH
Protocol: as §1, §2, §3

[3] = biological target: T3, MLO-Y4 cell surface proteins (Mus musculus, UniProt Q8R1I1); conditions: co-precipitated protein Uqcr10 (QCR9_MOUSE)
T3 construct: endogenous in cells; host or cells: MLO-Y4
T3 sequence (Q8R1I1 1-64): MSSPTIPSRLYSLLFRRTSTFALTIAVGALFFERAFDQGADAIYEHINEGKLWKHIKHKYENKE
Protocol: as §1, §2, §3

[4] = biological target: T4, MLO-Y4 cell surface proteins (Mus musculus, UniProt Q8VHN7); conditions: co-precipitated protein Gpr98 (GPR98_MOUSE)
T4 construct: endogenous in cells; host or cells: MLO-Y4
Protocol: as §1, §2, §3

[5] = biological target: T5, MLO-Y4 cell surface proteins (Mus musculus, UniProt Q9D125); conditions: co-precipitated protein Mrps25 (RT25_MOUSE)
T5 construct: endogenous in cells; host or cells: MLO-Y4
Protocol: as §1, §2, §3

adipsin
TMT signal-to-noise ratio [1]: 746.54
TMT signal-to-noise ratio [2]: 109.366
TMT signal-to-noise ratio [3]: 243.198
TMT signal-to-noise ratio [4]: 618.49
TMT signal-to-noise ratio [5]: 84.7592
